Assay results: patent publication US6403765B1, “Truncated Apaf-1 and methods of use thereof” (Thomas Jefferson University, priority 1998, dated 2002)

How the values were obtained:
Assay in all cases: In vitro caspase 9 activation assay: recombinant Apaf-1 variants incubated with in vitro translated procaspase-9
Format in all cases: biochemical
procaspase-9 [1] = target: T1, procaspase-9 (Homo sapiens, UniProt P55211, D315A); details: 35S-labeled substrate, FIG. 3
T1 construct: schematic representation of full length procaspase-9; made in house; host or cells: coupled in vitro transcription/translation in rabbit reticulocyte lysate (TNT Kit, Promega)
T1 sequence (P55211 1-416 D315A): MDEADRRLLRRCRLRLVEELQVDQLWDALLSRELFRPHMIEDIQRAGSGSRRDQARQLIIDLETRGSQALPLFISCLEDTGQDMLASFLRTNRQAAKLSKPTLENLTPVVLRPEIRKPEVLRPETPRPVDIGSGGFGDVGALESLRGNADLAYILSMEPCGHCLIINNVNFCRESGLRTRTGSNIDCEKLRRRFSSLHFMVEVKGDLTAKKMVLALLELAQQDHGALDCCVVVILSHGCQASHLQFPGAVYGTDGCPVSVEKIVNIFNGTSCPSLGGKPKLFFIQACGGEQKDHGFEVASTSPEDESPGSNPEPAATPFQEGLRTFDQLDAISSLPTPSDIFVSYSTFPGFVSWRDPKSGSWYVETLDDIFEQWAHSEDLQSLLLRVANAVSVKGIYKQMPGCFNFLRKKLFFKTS

procaspase-9 [2] = test system: procaspase-9
procaspase-9 [3] = target: T2, procaspase-9 (Homo sapiens, UniProt P55211)
T2 construct: schematic representation of full length procaspase-9; made in house; host or cells: coupled in vitro transcription/translation in rabbit reticulocyte lysate (TNT Kit, Promega)
T2 sequence (P55211 134-416): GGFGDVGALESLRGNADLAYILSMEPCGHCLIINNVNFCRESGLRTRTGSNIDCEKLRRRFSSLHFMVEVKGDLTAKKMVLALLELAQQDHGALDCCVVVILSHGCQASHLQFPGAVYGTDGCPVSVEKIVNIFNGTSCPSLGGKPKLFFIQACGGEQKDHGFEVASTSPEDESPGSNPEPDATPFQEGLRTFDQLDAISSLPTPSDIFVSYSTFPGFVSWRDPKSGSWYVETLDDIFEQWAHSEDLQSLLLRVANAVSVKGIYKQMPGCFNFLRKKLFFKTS

procaspase-9 [4] = target: T3, procaspase-9 (Homo sapiens, UniProt P55211, C287A)
T3 construct: schematic representation of full length procaspase-9; made in house; host or cells: coupled in vitro transcription/translation in rabbit reticulocyte lysate (TNT Kit, Promega)
T3 sequence (P55211 1-416 C287A): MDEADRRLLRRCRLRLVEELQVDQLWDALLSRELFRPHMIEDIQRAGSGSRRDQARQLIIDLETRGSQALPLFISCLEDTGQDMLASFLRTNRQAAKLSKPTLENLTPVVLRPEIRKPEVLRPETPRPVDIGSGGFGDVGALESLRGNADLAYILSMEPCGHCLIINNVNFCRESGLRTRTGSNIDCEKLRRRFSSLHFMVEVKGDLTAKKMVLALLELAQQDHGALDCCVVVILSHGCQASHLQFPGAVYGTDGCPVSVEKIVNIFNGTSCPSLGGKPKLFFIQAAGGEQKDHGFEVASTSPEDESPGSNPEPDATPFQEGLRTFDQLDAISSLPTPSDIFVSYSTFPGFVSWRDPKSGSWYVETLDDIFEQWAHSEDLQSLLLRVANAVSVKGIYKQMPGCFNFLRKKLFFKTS

procaspase-9 [5] = target: T4, procaspase-9 (Homo sapiens, UniProt P55211); details: in the absence of cytochrome c or dATP; 200 ng protein, 2 h at 30° C.; SDS-PAGE and autoradiography (FIG. 2A)
T4 construct: schematic representation of full length procaspase-9; made in house; host or cells: coupled in vitro transcription/translation in rabbit reticulocyte lysate (TNT Kit, Promega)
T4 sequence (P55211 1-416): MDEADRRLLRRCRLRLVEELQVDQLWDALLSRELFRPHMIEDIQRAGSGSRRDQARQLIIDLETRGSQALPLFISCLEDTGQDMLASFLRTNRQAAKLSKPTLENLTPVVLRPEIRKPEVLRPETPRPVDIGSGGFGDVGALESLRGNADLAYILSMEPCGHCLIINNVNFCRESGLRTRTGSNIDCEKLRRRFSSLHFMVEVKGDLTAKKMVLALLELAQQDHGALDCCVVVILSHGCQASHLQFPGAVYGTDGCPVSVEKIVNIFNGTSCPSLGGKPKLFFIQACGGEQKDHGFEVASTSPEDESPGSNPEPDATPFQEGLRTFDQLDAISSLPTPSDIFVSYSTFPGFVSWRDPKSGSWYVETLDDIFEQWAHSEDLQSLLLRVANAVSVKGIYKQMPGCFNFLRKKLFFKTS

[6] = in the presence of non-radiolabeled WT procaspase-9, FIG. 14

B1: Apaf-530: truncated Apaf-1 (residues 1-530) lacking its WD-40 repeats, recombinant (protein, UniProt O14727 1-530, looked up, fragment)
chain: MDAKARNCLLQHREALEKDIKTSYIMDHMISDGFLTISEEEKVRNEPTQQQRAAMLIKMILKKDNDSYVSFYNALLHEGYKDLAALLHDGIPVVSSSSGKDSVSGITSYVRTVLCEGGVPQRPVVFVTRKKLVNAIQQKLSKLKGEPGWVTIHGMAGCGKSVLAAEAVRDHSLLEGCFPGGVHWVSVGKQDKSGLLMKLQNLCTRLDQDESFSQRLPLNIEEAKDRLRILMLRKHPRSLLILDDVWDSWVLKAFDSQCQILLTTRDKSVTDSVMGPKYVVPVESSLGKEKGLEILSLFVNMKKADLPEQAHSIIKECKGSPLVVSLIGALLRDFPNRWEYYLKQLQNKQFKRIRKSSSYDYEALDEAMSISVEMLREDIKDYYTDLSILQKDVKVPTKVLCILWDMETEEVEDILQEFVNKSLLFCDRNGKSFRYYLHDLQVDFLTEKNCSQLQDLHKKIITQFQRYHQPHTLSPDQEDCMYWYNFLAYHMASAKMHKELCALMFSLDWIKAKTELVGPAHLIHEFVEYR
processing of D315A mutant procaspase-9 (procaspase-9 [1]): unable to process | processing of WT or D330A mutant procaspase-9 (procaspase-9 [2]; 35S-labeled substrate, FIG. 3): produced the p35 fragment | autoprocessing of C287A and R355E mutant procaspase-9 (procaspase-9 [2]; mutants incubated separately or together, 1 hour at 30° C., FIG. 13): none of the mutants were able to autoprocess | processing of prodomainless procaspase-9 (residues 134-416) (procaspase-9 [3]; 35S-labeled substrate, FIG. 3): prevented processing | processing of 35S-labeled prodomainless procaspase-9 (procaspase-9 [3]; [6]): not | processing of procaspase-9 active site C287A mutant (procaspase-9 [4]; 35S-labeled substrate, FIG. 3): unable to promote processing | processing of 35S-labeled C287A mutant procaspase-9 (procaspase-9 [4]; [6]): able to induce processing | processing of procaspase-9 to produce a 35 kDa fragment (p35) (procaspase-9 [5]): able to promote processing of procaspase-9
